Laboratory results taken from paper PMC6097844.

Target: Bh-RNase HC (RNase H1 catalytic domain) (Bacillus halodurans, UniProt Q9KEI9 59-196)
Test: X-ray crystallography

Bh-RNase HC (RNase H1 catalytic domain), sequence (Q9KEI9 59-196): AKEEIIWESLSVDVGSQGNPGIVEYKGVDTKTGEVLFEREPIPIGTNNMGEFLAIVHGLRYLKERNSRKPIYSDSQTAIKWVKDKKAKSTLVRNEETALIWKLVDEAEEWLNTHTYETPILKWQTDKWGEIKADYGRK

B1: RNA/DNA hybrid 6-mer (DNA:RNA)
RNA: ACAUCG
DNA: CGATGT
modifications: strand 1 printed ArCrArUrCG: ribonucleotides at 2-5, deoxy A1 and G6; strand 2 all DNA
B1: binds.
